Target: T1, GST-fused Grg1 (UniProt Q62440 1-770)
T1 construct: Grg1 (groucho-related gene 1); cloned into pGEX4T1; No purification before mixing with Sox2 is described; the fusion was collected on glutathione-sepharose after the incubation; also called GST-Grg1; source: E. coli BL21, induced with IPTG, bacteria lysed
Assay: pull-down; data not shown: amounts of radiolabelled Sox2 pulled down by GST-Grg1 and GST-Grg5 compared
Conditions: partners not purified

T1 sequence (Q62440 whole entry, the tested form may be a part): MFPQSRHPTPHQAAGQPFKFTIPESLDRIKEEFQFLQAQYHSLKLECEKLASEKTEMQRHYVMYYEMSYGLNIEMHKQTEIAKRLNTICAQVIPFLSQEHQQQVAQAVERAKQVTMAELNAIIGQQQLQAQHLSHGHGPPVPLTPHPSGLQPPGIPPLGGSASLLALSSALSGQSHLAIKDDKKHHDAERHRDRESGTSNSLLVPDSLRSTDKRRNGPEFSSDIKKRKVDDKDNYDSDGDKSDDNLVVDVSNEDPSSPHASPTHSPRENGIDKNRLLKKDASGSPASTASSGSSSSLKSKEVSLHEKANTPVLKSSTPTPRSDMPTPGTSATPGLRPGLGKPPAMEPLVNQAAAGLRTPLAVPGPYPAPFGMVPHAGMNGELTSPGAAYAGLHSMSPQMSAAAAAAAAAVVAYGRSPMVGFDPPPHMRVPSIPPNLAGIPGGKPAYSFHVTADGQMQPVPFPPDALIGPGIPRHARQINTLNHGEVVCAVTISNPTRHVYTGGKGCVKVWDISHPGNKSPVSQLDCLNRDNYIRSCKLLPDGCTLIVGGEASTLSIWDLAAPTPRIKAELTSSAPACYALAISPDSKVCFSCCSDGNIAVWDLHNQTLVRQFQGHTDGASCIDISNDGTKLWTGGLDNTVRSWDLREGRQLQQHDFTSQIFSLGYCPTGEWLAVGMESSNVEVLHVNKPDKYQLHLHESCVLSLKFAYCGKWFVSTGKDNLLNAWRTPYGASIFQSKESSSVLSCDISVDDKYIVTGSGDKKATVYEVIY

fold more Sox2 pulled down than by Grg5: ~4 fold
B1: radiolabelled Sox2 (in vitro translated) (natural protein)
chain: not shown
modifications: S^35-labelled
notes: Sox2, wild type; also called S^35-labelled Sox2; WT Sox2; source: in vitro translated (TNT T7 kit, Promega)

Source: publication PMC4148960, “Sox2 acts as a transcriptional repressor in neural stem cells” (BMC Neuroscience, 2014)
